According to paper PMC9134599:

Assays:
[1] = target: human amylin 1 receptor (CTR + RAMP1) (human) (UniProt O60894)
[2] = target: human calcitonin receptor, transcript variant 2 (CT(a) subtype), expressed alone (human)

Chain of human amylin (P10997 34-70): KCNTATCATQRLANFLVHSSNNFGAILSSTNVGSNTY
Chain of UniProt O60894 (O60894 whole entry, looked up): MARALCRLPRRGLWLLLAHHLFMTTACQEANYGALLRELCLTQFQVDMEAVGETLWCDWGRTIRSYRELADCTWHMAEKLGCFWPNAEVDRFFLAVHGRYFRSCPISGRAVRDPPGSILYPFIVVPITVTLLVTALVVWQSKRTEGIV

| pEC50 of the amylin-induced current (two-electrode voltage clamp, -70 mV), oocytes expressing AMY1-R, amylin 0.01 to 10 μM [1] | inward current (two-electrode voltage clamp, -70 mV), oocytes expressing CTR, CGRP 0.01 to 10 μM; maximum at 10 μM [2] | pEC50 of the CGRP-induced inward current (two-electrode voltage clamp, holding potential -70 mV), oocytes expressing CTR [2] | Substance |
| --- | --- | --- | --- |
| 6.33 -log M |  |  | human amylin (from UniProt P10997 34-70) (peptide) |
|  | -1.07 μA | 5.42 -log M | human α-CGRP (calcitonin gene-related peptide) (from UniProt P06881 83-119) |
